Common to all, as to assay: flow cytometry, transfected PEAK cells, 10 mcg/ml
For orientation: A flow cytometer gives signals particle by particle.

In one assay the target is T1, human CEACAM8 (human, UniProt P31997 35-320).
T1 construct: whole, on cells
T1 sequence (looked up): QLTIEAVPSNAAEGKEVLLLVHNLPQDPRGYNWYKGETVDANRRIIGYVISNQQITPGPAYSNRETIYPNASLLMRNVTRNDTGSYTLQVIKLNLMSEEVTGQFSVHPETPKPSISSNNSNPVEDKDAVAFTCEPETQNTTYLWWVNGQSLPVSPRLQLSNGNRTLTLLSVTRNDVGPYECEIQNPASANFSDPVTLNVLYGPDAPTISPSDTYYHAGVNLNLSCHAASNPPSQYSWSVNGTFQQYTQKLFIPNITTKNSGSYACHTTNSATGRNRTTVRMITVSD
An excerpt: (§1) Vectors encoding the full-length version of human CEACAM 1, 3, 4, 5, 6, 7, 8, 18, 19, 20 and […] are used to express these proteins at the surface of PEAK and/or CHO cells as described in Example 1. Similarly, vectors encoding the full-length version of cyno CEACAM 5 and 6 are also used to express these proteins at the surface of PEAK and/or CHO cells. Non-transfected PEAK and/or CHO cells are used as negative control. Cells are harvested, counted, checked for viability and resuspended at 3×10⁶ cells/ml in FACS buffer (PBS 2% BSA, 0.1% NaN₃). 100 μl of the cell suspension are distributed in V-bottom 96-well plates (3×10⁵ cells/well). The supernatant is removed by centrifugation 3 minutes at 4° C., 1300 rpm and the cells incubated for 15 minutes at 4° C. with increasing concentrations of the antibody according to the invention. The antibodies carrying the anti-CEACAM5 arms to test are diluted in FACS buffer and the concentration range is 30 pM-500 nM. Cells are washed twice with cold FACS buffer and re-incubated for further 15 minutes at 4° C. with a compatible anti-human IgG secondary antibody. Cells are washed twice with cold FACS buffer and resuspended in 300 μl FACS buffer with 1:1500-diluted TOPRO-3 (Invitrogen). Fluorescence is measured using a FACSCalibur™ (BD Biosciences) or a Cytoflex Platform (Beckman Coulter). Dose-response binding curves are fitted using GraphPad Prism8 software. In the same manner, CEACAM1, CEACAM6 and other CEACAMs can be characterized.
(§2) For the bispecific antibodies AB17L3-1/N, AB71L3-1/N, AB72L3-1/N, AB73L3-1/N the MFI measured for binding to CEACAM5 transfected cells was found between 29000 and 41000 (Table 2). In contrast MFI found by using PEAK cells transfected with CEACAM 1,3,4,6,8 were found below 1000 with the only exception of a strong signal for AB72L3-1/N on CEACAM8 transfected cells. When MFI values obtained on transfected cells expressing any given CEACAM are divided by the values obtained on WT PEAK cells, “factors to PEAK WT” can be calculated (Table 3).

For a further assay, the target named is T2, human CEACAM6 (human, UniProt P40199 35-320).
T2 construct: whole, on cells; also called CD66c
T2 sequence (looked up): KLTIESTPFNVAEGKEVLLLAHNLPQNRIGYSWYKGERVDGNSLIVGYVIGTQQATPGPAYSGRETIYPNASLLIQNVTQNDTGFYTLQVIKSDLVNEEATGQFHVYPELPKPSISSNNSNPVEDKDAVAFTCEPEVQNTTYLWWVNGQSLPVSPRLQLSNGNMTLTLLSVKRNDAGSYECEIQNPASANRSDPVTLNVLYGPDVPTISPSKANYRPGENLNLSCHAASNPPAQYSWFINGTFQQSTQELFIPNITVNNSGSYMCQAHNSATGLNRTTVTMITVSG
From the text: as §1, §2

The next assay has as its target T3, human CEACAM1 (human, UniProt P13688 35-526).
T3 construct: whole, on cells
T3 sequence (looked up): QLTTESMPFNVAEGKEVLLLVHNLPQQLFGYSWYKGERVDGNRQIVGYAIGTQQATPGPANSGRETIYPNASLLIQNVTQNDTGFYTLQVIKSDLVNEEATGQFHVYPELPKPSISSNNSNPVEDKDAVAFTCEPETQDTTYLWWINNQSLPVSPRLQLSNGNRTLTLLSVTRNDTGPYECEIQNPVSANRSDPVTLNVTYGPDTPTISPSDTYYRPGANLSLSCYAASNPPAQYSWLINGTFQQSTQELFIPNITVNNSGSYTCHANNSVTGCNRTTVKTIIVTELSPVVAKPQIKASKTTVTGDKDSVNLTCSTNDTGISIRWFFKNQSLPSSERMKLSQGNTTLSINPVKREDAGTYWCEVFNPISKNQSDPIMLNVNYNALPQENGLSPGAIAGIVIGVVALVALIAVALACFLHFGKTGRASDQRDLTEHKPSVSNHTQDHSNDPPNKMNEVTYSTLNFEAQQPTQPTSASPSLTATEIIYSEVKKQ
From the text: as §1, §2

A further assay has as its target T4, human CEACAM4 (human, UniProt O75871 36-244).
T4 construct: whole, on cells
T4 sequence (looked up): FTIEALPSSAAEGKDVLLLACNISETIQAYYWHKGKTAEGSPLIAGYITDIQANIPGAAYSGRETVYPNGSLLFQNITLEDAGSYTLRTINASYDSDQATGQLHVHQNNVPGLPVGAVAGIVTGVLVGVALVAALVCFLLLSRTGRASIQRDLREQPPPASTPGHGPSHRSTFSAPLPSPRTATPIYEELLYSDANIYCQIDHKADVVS
From the text: as §1, §2

B1: AB73L3-1/N (bispecific antibody, human IgG1, kappa, lambda, L234A L235A)
heavy: EVQLVESGGGLVQPGGSLKLSCAASGFTFNTYAMNWVRQAPGKGLEWVGRIRSKYNNYATYYADSVKDRFTISRDDSKNTAYLQMNSLKTEDTAVYYCVRHGNFGNSYVSWFAYWGQGTLVTVSSASTKGPSVFPLAPSSKSTSGGTAALGCLVKDYFPEPVTVSWNSGALTSGVHTFPAVLQSSGLYSLSSVVTVPSSSLGTQTYICNVNHKPSNTKVDKRVEPKSCDKTHTCPPCPAPEAAGGPSVFLFPPKPKDTLMISRTPEVTCVVVDVSHEDPEVKFNWYVDGVEVHNAKTKPREEQYNSTYRVVSVLTVLHQDWLNGKEYKCKVSNKALAAPIEKTISKAKGQPREPQVYTLPPSREEMTKNQVSLTCLVKGFYPSDIAVEWESNGQPENNYKTTPPVLDSDGSFFLYSKLTVDKSRWQQGNVFSCSVMHEALHNHYTQKSLSLSPG
light 1: EIVLTQSPATLSLSPGERATLSCRASQSVNSNLNWYQQKPGQAPRLLIYHSNNRPHGIPARFSGSGSGTDFTLTISSLEPEDFAVYYCQQFDYFREYNTFGQGTKVEIKRTVAAPSVFIFPPSDEQLKSGTASVVCLLNNFYPREAKVQWKVDNALQSGNSQESVTEQDSKDSTYSLSSTLTLSKADYEKHKVYACEVTHQGLSSPVTKSFNRGEC
light 2: QTVVTQEPSLTVSPGGTVTLTCRSSTGAVTTSNYANWFQQKPGQAPRGLIGGTNKRAPGTPARFSGSLLGGKAALTLSGAQPEDEAEYYCALWYKQRWVFGGGTKLTVLGQPKAAPSVTLFPPSSEELQANKATLVCLISDFYPGAVTVAWKADSSPVKAGVETTTPSKQSNNKYAASSYLSLTPEQWKSHRSYSCQVTHEGSTVEKTVAPTECS
notes: Kappa-lambda body, lead optimization wave 2
Consider B1, for which the MFI with human CEACAM8 was 401 MFI; with human CEACAM6, 490 MFI; in the assay with human CEACAM1 it was 542 MFI; with human CEACAM4, 352 MFI.

These data come from patent US20230136228A1 (LAMKAP BIO ALPHA, published 2023).
